Results on 3 molecules are retold here after patent US20140099299A1 (UAB RESEARCH FOUNDATION, published 2014).

Assay [1] addresses T1, human IL-10R1 chain coupled to agarose beads (human, UniProt Q13651 22-235).
T1 construct: also called HuIL-10R1 coupled beads; human IL-10R1 beads
T1 sequence: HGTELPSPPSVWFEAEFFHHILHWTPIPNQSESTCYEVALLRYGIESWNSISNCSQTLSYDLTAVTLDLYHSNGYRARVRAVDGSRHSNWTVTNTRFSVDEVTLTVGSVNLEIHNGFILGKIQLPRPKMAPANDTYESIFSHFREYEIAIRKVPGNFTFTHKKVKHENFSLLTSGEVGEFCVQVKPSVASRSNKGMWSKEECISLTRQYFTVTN
Nature of the assay: pull-down of 500 µL Drosophila medium with 15 µL HuIL-10R1-coupled agarose beads, Coomassie-stained SDS-PAGE.

The target in assay [2] is T2, human IL-10R1 chain on transfected TF-1 cells (TF-1/HuIL-10R1) (human, UniProt Q13651 22-578).
T2 sequence: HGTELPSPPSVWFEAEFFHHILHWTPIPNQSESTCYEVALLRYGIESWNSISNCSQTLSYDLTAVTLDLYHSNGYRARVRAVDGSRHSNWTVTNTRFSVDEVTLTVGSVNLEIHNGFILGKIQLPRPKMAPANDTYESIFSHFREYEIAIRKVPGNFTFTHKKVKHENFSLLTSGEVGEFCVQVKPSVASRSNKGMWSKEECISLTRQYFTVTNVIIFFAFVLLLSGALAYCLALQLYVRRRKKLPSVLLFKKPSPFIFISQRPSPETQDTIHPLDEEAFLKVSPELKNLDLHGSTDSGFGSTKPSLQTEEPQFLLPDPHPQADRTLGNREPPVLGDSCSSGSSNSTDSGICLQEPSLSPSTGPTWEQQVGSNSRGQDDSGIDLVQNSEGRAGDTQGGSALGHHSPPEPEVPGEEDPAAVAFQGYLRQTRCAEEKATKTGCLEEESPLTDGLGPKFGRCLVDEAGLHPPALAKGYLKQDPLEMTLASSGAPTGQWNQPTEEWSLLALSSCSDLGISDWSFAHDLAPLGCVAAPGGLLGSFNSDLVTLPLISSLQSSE
The assay is described as follows: cell-based or functional assay.

B1: H6FXa-rhcmvIL-10 Arg-34Glu point mutant (R63E of SEQ ID NO:1) (ligand)
chain: PPHHHHHHSDIEGRAHDHEHKEVPPACDPVHGNLAGIFKELRATYASIEEGLQKKDTVYYTSLFNDRVLHEMLSPMGCRVTNELMEHYLDGVLPRASHLDYDNSTLNGLHVFASSMQALYQHMLKCPALACTGKTPAWMYFLEVEHKLNPWRGTAKAAAEADLLLNYLETFLLQF
notes: Tested as Drosophila cell supernatant; Its exact end in pAHF cannot be seen because the underlining is lost; also called R34E; Lys-34Glu
Take B1: the binding result in assay [1] is “no binding”.

B2: H6FXa-rhcmvIL-10 Asp-144His point mutant (D176H of SEQ ID NO:1) (ligand)
chain: PPHHHHHHSDIEGRAHDHEHKEVPPACDPVHGNLAGIFKELRATYASIREGLQKKDTVYYTSLFNDRVLHEMLSPMGCRVTNELMEHYLDGVLPRASHLDYDNSTLNGLHVFASSMQALYQHMLKCPALACTGKTPAWMYFLEVEHKLNPWRGTAKAAAEAHLLLNYLETFLLQF
notes: Tested as Drosophila cell supernatant; also called D144H
As for B2, the “proliferation of TF-1/HuIL-10R1 cells” value in assay [2] is ~300 fold reduction in activity. The binding result in assay [1] was “no binding”.

B3: H6FXa-rhcmvIL-10 Gln-38Arg point mutant (Q67R of SEQ ID NO:1) (ligand)
chain: PPHHHHHHSDIEGRAHDHEHKEVPPACDPVHGNLAGIFKELRATYASIREGLRKKDTVYYTSLFNDRVLHEMLSPMGCRVTNELMEHYLDGVLPRASHLDYDNSTLNGLHVFASSMQALYQHMLKCPALACTGKTPAWMYFLEVEHKLNPWRGTAKAAAEADLLLNYLETFLLQF
notes: Tested as Drosophila cell supernatant; also called Q38R
Turning to B3, the “proliferation of TF-1/HuIL-10R1 cells” value in assay [2] was ~100 fold reduction in activity. Besides, the binding result in assay [1] is listed as “no binding”.
